Assay: yeast display, Sf9 membrane polyspecificity reagent, FACS + sequencing; frameworks hold sequencing errors
How it was run: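 After 36–48 hours of galactose induction, yeast (Saccharomyces cerevisiae BJ5465) displaying a synthetic nanobody library were stained at 4 °C for 1 hour with 10% biotinylated, detergent-solubilized Sf9 membrane reagent. Streptavidin microbeads enriched the stained cells before FACS sorting into low and high (top ~1%) gates on anti-HA and streptavidin fluorescence. Each clone's polyreactivity label reflects its gate of origin.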

| Sequence | polyreactivity (PSR sort gate) |
| --- | --- |
| AVQLVESGGGLVQAGGSLRLSCAASGSTCTGMTWDGRHRRLGRKELVAGIRSAGSTNYADSVKGRFTISGDNAKITVYLQLNSLKPEDTAVYYCAKDYRWVWRKYGYWGQGTQVTVSS | low polyreactivity |
| EDQLEESGGGLVQAGGSLRLSCAASGLIFPSYVMGWYRQAPGKERELVASISRVGSTYADSVKGRFTISRDNAKNTVYLQMNSLKPEDTAVYYCAKQVVWRGFRGLDYWGQGTQVTLSS | high polyreactivity |
| EEELVESGGGLVQAGGRLRLSCAASGRIFDYNAMGWYRQAPAKQRELVAVIDYSGDSTYYADSVKGRFTISRDNAKNTVYLQLISLKPEDTAVYYCNADSRYSYSDYGYWGQGTQVNVSS | low polyreactivity |
| EEELVESGGGLVQPGGSLRLSCAASGSIFTHYSMGWYRQAPGKERELVAAISWSGGSTYYADSVKGRFTISRDNAKYTVSLQMNSLKAEDTAVYYCAAETYWGDDYWGQGTQVTVSS | high polyreactivity |
| EVQLGESGGGLVQAGGSLRLSCAASGSTFNTNAMGWYRQAPGKERELVAAISWSSTRTYYADSVKGRFTISRDNAKNTVYLQINSLKPEDTAVYYCAGRSVGGRYFKGNYWGHGTQVTVSS | high polyreactivity |
| EVQLVESGGGLVQAGGSLRLICAASGSIFRDNAMGWYRQAPGKERELVARITWSGTRTYYADSVKGRFTISRDKAKNTVYLQMNSLKPEDTAVYYCNKDRRTIPPSGNDYWGQGTQVTVSS | low polyreactivity |
| EVQLVESGGGLVQAGGSLRLSCAASGRTFLVNAMGWSRPAPGKERELVAAISRSSGRTYYADSVKGRFTISRDNAKNTVYLQMNSLKPEDTAVYYCAARGYWGQGTQVTVSS | high polyreactivity |
| EVQLVESGGGLVQAGGSLRLSCAASGSIFYTNTMGWYRQAPGKERELVATGSTYYADSVKGRFTISRDNAKNTVYLQMNSLKPEDTAVYYCAKRGDFLTTRYESGSAASDYWGQGTQVTVSS | low polyreactivity |
| EVQLVESGGGLVQAGGSLRLSCAASGTSFLLYAMGWYRQARGKERELLAAISSSGARTYYADSVKGRCTISRDNAKYTVYLQMNSLKPEDTAVYYCAASRRAYRSSYVSPFGYWGQGTQVTGSS | high polyreactivity |
| EVQLVESGGGLVQAGGSLRLSCAAYGFTFVVYDMGWYRQAPGKERELVAAISRRGGNTYYADSVKGRFTISRDNAKNTVYLQMNSLKPEDTAVYYCNAVRTRKAYDYWGQGTQVTVSS | low polyreactivity |
| EVQLVESGGGLVQAGGSLRLSCADSGGIFIFYALGWYRQAPWKEREFVASIRSNVGSTYYADSVKGRFTISRDNAKNTVYLQMNSLNPEDTAVYYCNSRYYWYRGYDYWGQGTQVTVSS | high polyreactivity |
| EVQLVESGGGLVQSGGSLRLSSAASGSIFRYYAMGWYRQAPGKERELVAAITGSTGRTYYADSVKGRFTISRDNAKNTVYLQMNSLKPEDTAVYYCAARSRYYEYDYWGQGTQVTVSS | low polyreactivity |
| HAQLQESGGGLVQAGGSLRRSCAASGSIFRFSGMGWYRRAPGKERELVASIGFGSITYYADRVKGRFTISRDNANKTVYLQMNSLKPEDTAVYYCAVQVQDESWLDYWGQGTQVTVSC | low polyreactivity |
| HDQLVESGGGLVQAGGSLRLSCAASGNTFIYYAMGWYRQAPGKEREMVAAISRSGGSTYYADSVKGRFTISRDNAKNTVYLQMNSLKPEDTAVYYCAAEATKWIGVVTMDYWGQGTQVTVSS | high polyreactivity |
| HFQLVESGGGLVQAGGSLRLSCAASGFTFNDMGWYRLATGKERELVARIDSDDTTNYADSVKGRFTISRDNAKKTVYVLMNSLKPEDTAVYYCNKDYAWLSYQDYDYWGQGTQVTVSS | low polyreactivity |
| HFQLVESGGGLVQAGGSLRLSCAASGSSYSNYAMGWYRQAPGKEREMVAAISSSGSTYYADSVKGRFTISRDNAKNTVYLQLHRLKPEDTAVYYCAAGKDRRTSRYRYDSWGQGTQVTVSS | high polyreactivity |
| HGQLVESGGGLVQAGGSLRLSCAASGRTFRYYAMGWYREAPGKERELVAAITGSGGSTYYADSVKGRFTISRDNAQNTVYLQMNSLKPEDTAVYYCATRWALRWRGGYWGQGTQVTVSS | high polyreactivity |
